A short description of this data set: yeast display, Sf9 membrane polyspecificity reagent, FACS + sequencing; frameworks hold sequencing errors. Put shortly:
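A nanobody's polyreactivity label depends on the gate it was sorted from. Yeast display cells were stained with 10% biotinylated, detergent-solubilized Sf9 membrane reagent for 1 hour at 4 °C, enriched on streptavidin microbeads and sorted by FACS. The low and high (top ~1%) gates were set on anti-HA fluorescence for expression and streptavidin fluorescence for reagent binding.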
Turning to “QVQLVESGGGLVQAGGSLRLSCAASGRIFPDYAMGWYRQAPGKERELVAAISSSGGRTYYADSVKGRFTISRDNAKNTVYLQMNSLKPEDTAVYYCAARGSYTSIFDYWGQGTQVTVSS”, the “polyreactivity (PSR sort gate)” value is listed as “high polyreactivity”.

As to “QVQLVESGGGLVQAGGSLRLSCAASGRIFPFYAMGWYIQAPGKERELVAAISRSGRTNYADSVKGRFTISRDNAKNTVFLQMNSLKPEDTAVYYCNADYYLFDFDSWGQGTQVTVSS”, the “polyreactivity (PSR sort gate)” value was “low polyreactivity”.

For “QVQLVESGGGLVQAGGSLRLSCAASGRIFPFYAMVWYRQAPGKERELVAAITTSGGSTYYADSVKGRFTISRDNAKNTVYLQMNRLKPEDTAVYYCNKRLGLELAPWEMNYWGQGTQVTVSS”, the “polyreactivity (PSR sort gate)” value is listed as “low polyreactivity”.

Regarding “QVQLVESGGGLVQAGGSLRLSCAASGRIFPGYAMGWYRQAPGKEREFVAAITASGGTTYYADSVKGRFTISRDNAKNTVYLQMNSLKPEDTAVYYCAVYDWRYYLGKLMEYWGQGTQVTVSS”, the “polyreactivity (PSR sort gate)” value was “high polyreactivity”.

Turning to “QVQLVESGGGLVQAGGSLRLSCAASGRIFPGYAMGWYRQAPGKERELVAAISKGGGSKYYADSVKGRFTISRDNAKNTVYLQMNSLKTEDTAVYYCAAQSYPRSYGLDYWGQGTQVTVSS”, the “polyreactivity (PSR sort gate)” value is on record as “high polyreactivity”.

As for “QVQLVESGGGLVQAGGSLRLSCAASGRIFPGYAMGWYRQAPGKERELVAAISTNGGRTYYADSVKGRFTISRDNAKNTVYLQMNSLKPEDTADYYCAAESAYDAYDYWGQGTQVTVSS”, the “polyreactivity (PSR sort gate)” value is “high polyreactivity”.

Take “QVQLVESGGGLVQAGGSLRLSCAASGRIFPGYDMGWYRQAPGKERELVAAISASGGSTYYADSVKGRFTISRDNAKNTVYLQMNSLKPEDTAVYYCNAVYRLIRFDYWGQGTQVTVSS”: the “polyreactivity (PSR sort gate)” value is given as “high polyreactivity”.

Take “QVQLVESGGGLVQAGGSLRLSCAASGRIFPGYVMGWYRQAHGKERELVAAITRGGSTYYADSVKGRFTISRDNAKNTVYLQMNSLKPEDTAVYYCAAKHSHIHYNYWGQGTQVTVSS”: the “polyreactivity (PSR sort gate)” value is reported as “low polyreactivity”.

For “QVQLVESGGGLVQAGGSLRLSCAASGRIFPHYAMGWFRQAPGKERELVAAISSGGRTNYADSVKGRFTISRDNAKNTVYLQMNSLKREDSAVYYCAAEAPFYVIGRRYRGYDYWGQGTQVTVSS”, the “polyreactivity (PSR sort gate)” value is reported as “high polyreactivity”.

On to “QVQLVESGGGLVQAGGSLRLSCAASGRIFPHYTMGWYRQAPGKERELVATISGRGGSTYYADSVKGRFTISRDIAKNTVYLQMNSLKPEDTAVYYCAREGCRRYAGLYYWGQGTQVTVSS”, for which the “polyreactivity (PSR sort gate)” value was “high polyreactivity”.

As to “QVQLVESGGGLVQAGGSLRLSCAASGRIFPKYAMGGDRQAPGTERPLVAAISSSGGSKYYADSVKGRFTISRDNAKNTVYFQMNSLKPEDTAVYYCNVDKATRDRYPGFDYWGQGTQVTVSS”, the “polyreactivity (PSR sort gate)” value was “high polyreactivity”.

For the sequence “QVQLVESGGGLVQAGGSLRLSCAASGRIFPKYTMGWYRQAPGKERELVASINSSGRTTYADSVKGRFTITRDNAKNTVYLQMNSLKPEDTAVYYCAKRVFSARGYGYWGQGTQVTVSS”, the “polyreactivity (PSR sort gate)” value is “low polyreactivity”.

Take “QVQLVESGGGLVQAGGSLRLSCAASGRIFPPNAMGWYRQAPGKERELVAAITGSGGSTYYADSVKGRFTITRDNAKNTVYLQKNSLKPADTAVYYCAVESLGRVSRGYDYWGQGTQVTVSS”: the “polyreactivity (PSR sort gate)” value is “low polyreactivity”.

As for “QVQLVESGGGLVQAGGSLRLSCAASGRIFPPYAMGWYRQAPGKERELVAAISSSTTSTYYADSVKGRFTISRDNAKNTVYLQMNSLKPEDTGVYYCAAQPYRAAFPYSSRRHLQYEYWGQGTQVTVSS”, the “polyreactivity (PSR sort gate)” value is recorded as “low polyreactivity”.

In the case of “QVQLVESGGGLVQAGGSLRLSCAASGRIFPPYAMGWYRQAPGKERELVATISYTGGSTYYADSVKGRFTISRDNAKNTVYLQMNRLKPEDTAVYYCNAEYYYWNREGDYWGQGTQVTVSS”, the “polyreactivity (PSR sort gate)” value is “low polyreactivity”.

Take “QVQLVESGGGLVQAGGSLRLSCAASGRIFPPYDMGWYRQATGKEREFVAAIDWTGGSTYYADSVKGRFTISRDNAKNTVYLQMNSLKPEDTAVYYCNAEQSYRGVGWRYDYWGQGTQVTVSS”: the “polyreactivity (PSR sort gate)” value is “low polyreactivity”.

In the case of “QVQLVESGGGLVQAGGSLRLSCAASGRIFPQYAMGWSRQAPGKERELVAGITSVGSTYYADSVKGRFTISRDNAKNTVYLQMNSLKPEDTAVYYCAAVPSRYVRANRRTYRYYYWGQGTQVTVSS”, the “polyreactivity (PSR sort gate)” value is reported as “high polyreactivity”.

For the sequence “QVQLVESGGGLVQAGGSLRLSCAASGRIFPRNAMGWYRQAPGKERELVAAISSGGGGTYYADSVKGRFTISRDNAKNTVYLQMNSLKPEDTAVYYCNAAYTYVTAWYYYWGQGTQVTVSS”, the “polyreactivity (PSR sort gate)” value was “high polyreactivity”.

Consider “QVQLVESGGGLVQAGGSLRLSCAASGRIFPRNTMGRYRQAPGKERELVAGITSGGGTYYADSVKGRFTISRDNAKNTVYFQMNRLKPEDTAVFYCAARPWRSRYYGGLGRRFDYWGQGTQVTVSS”, for which the “polyreactivity (PSR sort gate)” value is recorded as “high polyreactivity”.

Take “QVQLVESGGGLVQAGGSLRLSCAASGRIFPRYAMGWYRQAPGKERELVATISSGGSTYYADSVKGRFTISRDNAKNTVYLQMNSLKPEDTAVYYCAARKRPYTVINGMDYWGQGTQVTVSS”: the “polyreactivity (PSR sort gate)” value is reported as “low polyreactivity”.

As for “QVQLVESGGGLVQAGGSLRLSCAASGRIFPRYAMGWYRQAPGKERQLVAAITSGDSTHYADSVKGRFTISRDNAKNTVYLQMNSLKPEDTAVYYCAAKYPRYGRHAYGYWGQGTQVTVSS”, the “polyreactivity (PSR sort gate)” value is listed as “high polyreactivity”.

Regarding “QVQLVESGGGLVQAGGSLRLSCAASGRIFPSYAMGWYRQAPGKERELVAAISYSGASTYYADSVKGRFTISRDNAKNTVYLQMNSLKPEDTAVYYCYQLVEEDYWGLGTQVTVSS”, the “polyreactivity (PSR sort gate)” value is given as “low polyreactivity”.

“QVQLVESGGGLVQAGGSLRLSCAASGRIFPTYAMGWYRQAPGKERELVAGITSGGRTNYADSVKGRFTISRDNAKNTVYLQMNSLKPEDTAVYYCAKRVWPRDQYGKRNPRMDYWGQGTQVTVSS”: the “polyreactivity (PSR sort gate)” value is listed as “high polyreactivity”.

For “QVQLVESGGGLVQAGGSLRLSCAASGRIFPVNAMGWYRQAPGKEREFVARISRRGGSTYYADSVKGRFTISRDNAKNTVYLQMNSLKPEDTAVYYCAAVSSRYSYDYWGQGTQVTVSS”, the “polyreactivity (PSR sort gate)” value is recorded as “high polyreactivity”.

In the case of “QVQLVESGGGLVQAGGSLRLSCAASGRIFPVYAMGWYRQAPGNERELVAAITSGVGSTYYADSVKGRFTISRDNAKNTVYLQMNSLKPEDTAVYYCAADSSYLTYWEYDYWGQGTQVTVSS”, the “polyreactivity (PSR sort gate)” value was “low polyreactivity”.

Take “QVQLVESGGGLVQAGGSLRLSCAASGRIFPWNAMGWYRQAPGKDRELVAAISFSAGRTYYADSVKGRFTISRDNAKNTVYLQMNSLKPEDTAVYYCNARIGSPWVWTGIIGYEYWGQGTQVTVSS”: the “polyreactivity (PSR sort gate)” value is “low polyreactivity”.

Turning to “QVQLVESGGGLVQAGGSLRLSCAASGRIFPWNAMGWYRQAPGKERDLVAAISFSAGRTYYADSVKGRFTISRDNAKNTVYLQMNSLKPEDTAVYYCNARIGSRWVWTGIIGYEYWGQGTQVTVSS”, the “polyreactivity (PSR sort gate)” value is “low polyreactivity”.

Consider “QVQLVESGGGLVQAGGSLRLSCAASGRIFPWYAMGWYRQAPGKEREVVAAIRWRGGGTYYADSVKGRFTISRDNAKNTVYLQMNSLKPEDTAVYYCAARRPANGMGYWGQGTQVTVSS”, for which the “polyreactivity (PSR sort gate)” value is recorded as “high polyreactivity”.

For the sequence “QVQLVESGGGLVQAGGSLRLSCAASGRIFPYKDMGWSRQAHGKEMELVAGISYSGGSTYYADSVKGRFTISRDNAKNTVYLQMNSLKPEDTAVYYCARDYSRHKGDYWGQGTQVTVSS”, the “polyreactivity (PSR sort gate)” value was “low polyreactivity”.

As to “QVQLVESGGGLVQAGGSLRLSCAASGRIFPYYAMGWYRQAPGKERELVAAITTRGGSTYYADSVKGRFTISRDNAKNTVYLQMNSLKPEDTAVYYCAAVTFGRMEYWGQGTQVTVSS”, the “polyreactivity (PSR sort gate)” value is listed as “low polyreactivity”.

For the sequence “QVQLVESGGGLVQAGGSLRLSCAASGRIFPYYDMGWYREAPGKERELVAAITWNGGSTYYADSVKGRFTISRDNAKNTVYLQMNSLKPADTAVYYCAVEPYYYGEDYWGQGTQVTVSS”, the “polyreactivity (PSR sort gate)” value is listed as “low polyreactivity”.

Turning to “QVQLVESGGGLVQAGGSLRLSCAASGRIFPYYDMGWYRQAPGKERELVAAITWNGGSTYYADSVKGRFTISRDNAKNTVFLQMNSLKPEDSAVYYCAVEPYYYGEDYWGQGTQVTVSS”, the “polyreactivity (PSR sort gate)” value is “low polyreactivity”.

Take “QVQLVESGGGLVQAGGSLRLSCAASGRIFQFYAMGWYRQAPGKERELVASISASGARTYYADSVKGRFTISRDNAKNTVYLQMNSLNPEDTAVYYCNVVYFDGNPEDYEYWGKGTQVTVSS”: the “polyreactivity (PSR sort gate)” value is listed as “high polyreactivity”.

“QVQLVESGGGLVQAGGSLRLSCAASGRIFQGNAMGWYRQAPGKERELVAAITTSGGSTYYADSVKGRFTISRDNAKNTVYLQMNSLKPEDTAVYYCNVDPRKRSYDYWGQGTQVTVSS”: the “polyreactivity (PSR sort gate)” value is “high polyreactivity”.

In the case of “QVQLVESGGGLVQAGGSLRLSCAASGRIFQGNAMGWYRQAPRKERELVAAISWRGGRTYYADSVKGRFTISRAYAKNTVYLQMNSLKPEDTAVYYCAAKAYREDEGYWGQGTQVTVSS”, the “polyreactivity (PSR sort gate)” value is “high polyreactivity”.

Turning to “QVQLVESGGGLVQAGGSLRLSCAASGRIFQGYAKGWYRQAPGKERELVAAIRTGGSTNYADSVKGRFTISRDNAKNTVYLQMNSLKPEDTAVYYCNAVGQLYFYFPRGDYWGQGTQVTVSS”, the “polyreactivity (PSR sort gate)” value is “low polyreactivity”.

Regarding “QVQLVESGGGLVQAGGSLRLSCAASGRIFQGYAMGWYRKAPGKERELVAAIRSGSGSTYYADSVKGRFTISRDNAKNTVYLQMNSLKPEDTAVYYCAADRYYWGQGTQVTVSS”, the “polyreactivity (PSR sort gate)” value is recorded as “low polyreactivity”.

As for “QVQLVESGGGLVQAGGSLRLSCAASGRIFQGYAMGWYRQAPGKEREFVAVISTSGGRTSYADSVKGRFTISRDNAKNTVYLQMNSLKPEDTAVYYCNALYGRYGWSKNYYWGQGTQVTVSS”, the “polyreactivity (PSR sort gate)” value is “high polyreactivity”.

“QVQLVESGGGLVQAGGSLRLSCAASGRIFQKYAMGWYRQAPGKERELVAAISSGDSTYADSVKGRFTISRDNAKNTVYLQMNSLKPEDTAVYYCAVDLYDPWWYSYIGEYEYWGQGTQVTVSS”: the “polyreactivity (PSR sort gate)” value is recorded as “low polyreactivity”.

For the sequence “QVQLVESGGGLVQAGGSLRLSCAASGRIFQKYAMGWYRQAPGKERELVAAISSGDSTYADSVKGRFTISRDNAKNTVYLQMNSLKPEDTAVYYCNREVPESQGFITPDGYCGQGTQVTVSS”, the “polyreactivity (PSR sort gate)” value is “low polyreactivity”.

“QVQLVESGGGLVQAGGSLRLSCAASGRIFQNNAMGWYRQAPGKERELVAAINIIDGVTYYADSVKGRFTISRDNAKNTVYLQMNSLKPEDTAVYYCNAVRRAHHRKYNYWGQGSQVTVSS”: the “polyreactivity (PSR sort gate)” value was “low polyreactivity”.
